According to patent US20130022590A1, “Compositions Comprising Zinc Finger Domains and Uses Therefor” (priority 2009, published 2013):

What was measured:
[1] = system: ssRNA pool containing a randomized 25-nt sequence; experiment: SELEX in vitro site selection; assay type: binding; conditions: up to 13 rounds of selection
Description: A ZRANB2-F12 SELEX protocol was developed, based on that used by Sakashita E. and Sakamoto H.1994 Acids Res 22:4082-4086. In brief, a library of ssRNA sequences was incubated with GST-F12 on glutathione Sepharose beads, and after washing protein—RNA complexes were eluted with glutathione and the selected RNA was reverse-transcribed and amplified by PCR. Sequencing of selected sequences was carried out after 7, 9, and 13 rounds of selection.
An oligonucleotide harbouring a 25-nucleoride (nt) random sequence surrounded by 2 primer binding sites with an estimated complexity of 1.2×10^12 (sampling complete sequence space for 20-nt sequences) was amplified by 10 rounds of PCR as previously described in Sakashita E., and Sakamoto H.1994 Nucleic Acids Res 22: 4082-4086, then purified by using a QIAquick gel extraction kit (e.g., QIAGEN) according to manufacturer's instructions. RNA was transcribed from 13 pmol of dsDNA template, then extracted with phenol/chloroform and ethanol-precipitated according to established methods in the art. The RNA pellet was resuspended in water […], and unincorporated nucleotides were removed by Sephadex G-25 Quick Spin columns (Roche). RNA was quantified by absorbance at 260 nm.
Binding reactions were carried out in SELEX buffer [10 mM Mops (pH 7.0), 50 mM KCl, 5 mM MgCl2, 5% glycerol, 1 mM DTT, 0.1% Triton, […], Complete protease inhibitor]. […]

[2] = system: ssRNA containing two AGGUAA sites (AGGUAAAGGUAA, SEQ ID NO: 26); experiment: Fluorescence anisotropy titration, double-site ssRNA; assay type: binding
Description: Fluorescence Anisotropy titrations e.g., as shown in FIGS. 1D-F, 8 and 35, were carried out using standard protocols. In brief, 5′-Fluorescein-labeled RNA oligonucleotides were quantified by A260, correcting for fluorescein absorbance by using A493. For single-site experiments, the sequence GCAACCAGGUAAAGUCU (SEQ ID NO: 28), or single base mutants thereof, was used. For double-site experiments, two AGGUAA sites were separated by different length sequences as indicated, and the total oligonucleotide lengths were kept constant by the symmetrical addition of adenines to each end. The anisotropy titrations were performed with a starting RNA concentration of 50 nM in a buffer comprising either 10 mM Tris (pH 8.0), 50 mM KCl, 5 mM MgCl2, 0.05 mg/mL heparin, and 1 mM DTT (for GST fusion constructs) or 10 mM Mops (pH 7.3), 50 mM NaCl, 0.05 mg/mL heparin, and 1 mM DTT (for ZRANB2-F12). RNasin (Promega) was also added to the protein solution to a concentration of 2 units/μL. Protein was titrated into this starting solution and anisotropy values measured on a Cary Eclipse fluorescence spectrophotometer fitted with manual polarizer and long-pass filters set to 475 and 515 nm for excitation and emission, respectively. Excitation and emission wavelengths were set at 495 and 520 nm, respectively (10-nm slits) and the temperature was maintained at 25° C. by using a block temperature controller. Association constants were determined by nonlinear least squares regression analysis using a 1:1 binding model.
The importance of the spacing between AGGUAA motifs was assessed by measuring binding of F12 to double sites that were separated by −1 to 8 nt (where −1 denotes the sequence AGGUAAGGUAA SEQ ID NO: 33; FIG. 1E, lanes 5-10).

[3] = system: 17-nt RNA oligonucleotide containing a single AGGUAA motif; experiment: Gel shift assay of F12 with 17-nt oligonucleotide; assay type: binding
Description: Gel Shift assays e.g., FIGS. 1B, 32A, were carried out using standard protocols. In brief, oligonucleotides were 5′ end-labelled with T4 polynucleotide kinase and annealed. Binding reactions were set up in a volume of 30 μL and contained a constant concentration of ^32P-labeled probe (0.1 pmol) and increasing concentrations of F12, in a buffer consisting of 10 mM Mops (pH 7.2), 50 mM KCl, 5 mM MgCl2, 1 mM DTT, 0.03 mg/mL heparin, and 5% glycerol. Binding reactions were set up on ice and incubated at 4° C. for 30 min, after which time 15 μL of each sample was loaded onto a prerun 8% native polyacrylamide gel made up in 0.5× Tris-borate buffer, and electrophoresed (250V, 1 h, 4° C.). The oligonucleotide sequence used for gel shift experiments was GCAACCAGGUAAAGUCU (SEQ ID NO: 28); the site was mutated by changing the central GGU to CUG.
To determine whether the AGGUAA motif was sufficient for binding, the binding of the double finger construct F12 to a 17-nt RNA oligonucleotide containing a single AGGUAA motif was tested as described in Section 1.4 above with dsDNA, ssDNA, and dsRNA also tested as controls.

[4] = system: 5′ splice site from exon 3 of the Tra2β minigene (CUCUGAAUCUAGGUAAGAAAG); experiment: Surface plasmon resonance competition binding; conditions: 750 nM F12, 1 molar equivalent competitor RNA; compared with exons 1 and 2
Description: Competition binding experiments were carried out by flowing a solution of F12 over a streptavidin chip coated with a biotinylated ssRNA oligonucleotide (containing the sequence AGGUAA) in the presence of an unlabeled competitor oligonucleotide.
Binding experiments were performed in triplicate at 25° C. on a BIACORE 3000 (Biacore). A 5′ biotin-labeled RNA oligonucleotide containing the 5′ splice site from exon 3 of the Tra2β minigene ([…]; SEQ ID NO: 29) was purified by size exclusion chromatography (Superdex 75), and unlabeled competitor oligonucleotides i.e., GCGAGCGGUACGUAGA from exon 1 (SEQ ID NO: 30), AGGAAUAAGUGAAGCUG from exon 2 (SEQ ID NO: 31), and […] from exon 3 (SEQ ID NO: 32) were used without further purification. Protein and RNA samples were dialysed into 10 mM sodium phosphate (pH 7.2), 50 mM NaCl, 1 mM DTT, and 0.005% NP20 and filtered. The biotinylated RNA was heated to 65° C. for 5 min, cooled on ice, and then immobilized onto a streptavidin-coated sensor chip to a total of approximately 160 relative units. Solutions of 750 nM F12 in the presence of 1 molar equivalent of each competitor RNA were injected in random order over the sensor chip (at a flow rate of 20 μL/min for 120 sec) and allowed to undergo a 120-sec dissociation time; a further 300-sec interval was allowed between injections. Data were analyzed by using BIA Evaluation software (Biacore). […]

effect on binding of scrambling both sites ([2]; FIG. 1E, lane 3): effectively eliminated binding | reduction in binding to the chip by competitor 5′ splice site oligonucleotide of exon 3 [4]: largest reduction in binding
B1: F12: F1 and F2 domains, residues 1-95 of human ZRANB2 (protein, UniProt O95218 1-95, looked up, fragment)
chain: MSTKNFRVSDGDWICPDKKCGNVNFARRTSCNRCGREKTTEAKMMKAGGTEIGKTLAEKSRGLFSANDWQCKTCSNVNWARRSECNMCNTPKYAK
modifications: F1-F2 zinc fingers GST fusion in some uses
notes: F1 and F2 domains, residues 1-95 of human ZRANB2
consensus ssRNA sequence recognized [1]: AGGUAA(N1-8)AGGUAA | affinity (association constant) for AGGUAAAGGUAA ([2]; FIG. 1E, lane 6): 1.9e+07 M⁻¹ | affinity for double site with cytosine-rich spacer versus penta-adenine spacer ([2]; FIG. 1E, lanes 10 and 8): same affinity | affinity versus spacing between AGGUAA motifs ([2]; double sites separated by −1 to 8 nt, adenines inserted): increased monotonically | effect on binding of randomizing one of the AGGUAA motifs ([2]; sequence AGAAUGAGGUAA, FIG. 1E, lane 4): reduced the binding by a small, but reproducible, amount | effect of mutation of the central GGU to CUG [3]: abrogated the interaction | nucleic acid type selectivity of the interaction ([3]; dsDNA, ssDNA, dsRNA tested as controls): strongly selective for ssRNA
